Ends that are not written are not given here.
T1: CYLD CAP-Gly3 domain, GST-tagged, Q9NQC7
T1 chain: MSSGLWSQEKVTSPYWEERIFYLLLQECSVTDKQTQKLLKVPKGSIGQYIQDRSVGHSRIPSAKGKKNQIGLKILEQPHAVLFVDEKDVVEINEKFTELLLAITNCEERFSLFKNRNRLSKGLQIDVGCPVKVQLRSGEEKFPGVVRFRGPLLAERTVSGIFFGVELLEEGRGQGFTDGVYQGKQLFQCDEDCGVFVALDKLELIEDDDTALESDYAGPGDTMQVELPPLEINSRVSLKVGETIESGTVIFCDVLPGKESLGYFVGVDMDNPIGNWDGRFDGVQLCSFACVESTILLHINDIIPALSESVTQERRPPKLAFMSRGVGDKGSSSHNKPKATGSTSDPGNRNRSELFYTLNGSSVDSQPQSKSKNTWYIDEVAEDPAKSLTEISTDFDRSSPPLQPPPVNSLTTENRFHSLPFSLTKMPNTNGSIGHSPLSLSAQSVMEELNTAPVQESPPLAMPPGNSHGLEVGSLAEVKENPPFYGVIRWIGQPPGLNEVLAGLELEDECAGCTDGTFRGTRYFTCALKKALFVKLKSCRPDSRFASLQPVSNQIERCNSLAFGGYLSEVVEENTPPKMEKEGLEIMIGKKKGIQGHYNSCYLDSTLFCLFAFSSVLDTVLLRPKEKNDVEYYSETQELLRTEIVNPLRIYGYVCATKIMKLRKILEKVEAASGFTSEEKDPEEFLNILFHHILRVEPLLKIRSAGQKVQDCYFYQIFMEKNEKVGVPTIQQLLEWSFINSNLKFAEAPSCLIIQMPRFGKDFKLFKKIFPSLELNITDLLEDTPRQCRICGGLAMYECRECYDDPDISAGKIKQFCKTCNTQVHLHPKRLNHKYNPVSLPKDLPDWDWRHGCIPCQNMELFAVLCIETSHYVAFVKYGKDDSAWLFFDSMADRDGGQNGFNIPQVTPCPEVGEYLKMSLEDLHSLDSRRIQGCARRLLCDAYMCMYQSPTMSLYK

T2: CYLD CAP-Gly1 domain, GST-tagged, Q9NQC7
T2 chain: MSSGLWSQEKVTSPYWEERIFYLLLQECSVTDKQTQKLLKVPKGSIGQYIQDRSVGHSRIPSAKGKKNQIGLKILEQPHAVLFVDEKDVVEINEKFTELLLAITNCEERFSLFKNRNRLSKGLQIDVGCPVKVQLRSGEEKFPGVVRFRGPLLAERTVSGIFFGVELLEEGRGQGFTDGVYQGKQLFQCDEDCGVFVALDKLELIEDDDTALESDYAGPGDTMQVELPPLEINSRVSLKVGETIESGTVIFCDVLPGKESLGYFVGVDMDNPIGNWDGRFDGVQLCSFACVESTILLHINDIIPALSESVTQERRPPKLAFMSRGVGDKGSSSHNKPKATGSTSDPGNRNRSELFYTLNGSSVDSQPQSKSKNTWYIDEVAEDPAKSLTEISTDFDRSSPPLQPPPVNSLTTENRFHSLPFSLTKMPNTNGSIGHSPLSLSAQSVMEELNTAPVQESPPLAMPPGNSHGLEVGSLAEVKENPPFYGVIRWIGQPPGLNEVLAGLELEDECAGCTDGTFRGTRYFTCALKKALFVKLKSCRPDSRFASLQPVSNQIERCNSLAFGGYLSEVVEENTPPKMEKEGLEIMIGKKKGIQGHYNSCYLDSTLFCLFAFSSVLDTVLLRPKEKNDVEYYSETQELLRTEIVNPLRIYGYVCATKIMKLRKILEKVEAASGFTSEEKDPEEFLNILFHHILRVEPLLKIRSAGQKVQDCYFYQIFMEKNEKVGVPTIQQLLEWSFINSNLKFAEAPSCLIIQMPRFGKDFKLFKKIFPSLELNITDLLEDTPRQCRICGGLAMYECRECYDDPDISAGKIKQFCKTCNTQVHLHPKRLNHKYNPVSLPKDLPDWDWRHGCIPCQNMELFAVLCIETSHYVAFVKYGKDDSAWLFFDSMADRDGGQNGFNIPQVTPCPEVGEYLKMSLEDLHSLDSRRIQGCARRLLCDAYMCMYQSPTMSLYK

B1: HECTD4_(3003-3018) peptide, Q9Y4D8 V3005A (peptide)
chain: GGAFKDEIYIPLQEED
B2: HECTD4_(3003-3018) peptide, Q9Y4D8 F3006A (peptide)
chain: GGVAKDEIYIPLQEED
B3: HECTD4_(3003-3018) peptide, Q9Y4D8 L3014A (peptide)
chain: GGVFKDEIYIPAQEED
B4: RBM25_(558-573) peptide, P49756 D559A (peptide)
chain: PAAELQRMEQEAERRR
B5: RBM25_(558-573) peptide, P49756 L562A (peptide)
chain: PDAEAQRMEQEAERRR
B6: RBM25_(558-573) peptide, P49756 E570A (peptide)
chain: PDAELQRMEQEAARRR
B7: HECTD4_(3003-3018) peptide, Q9Y4D8 P3013A (peptide)
chain: GGVFKDEIYIALQEED
B8: RBM25_(558-573) peptide, P49756 E566A (peptide)
chain: PDAELQRMAQEAERRR
B9: RBM25_(558-573) peptide, P49756 Q567A (peptide)
chain: PDAELQRMEAEAERRR
B10: RBM25_(558-573) peptide, P49756 P558A (peptide)
chain: ADAELQRMEQEAERRR
B11: RBM25_(558-573) peptide, P49756 R564A (peptide)
chain: PDAELQAMEQEAERRR
B12: HECTD4_(3003-3018) peptide, Q9Y4D8 E3016A (peptide)
chain: GGVFKDEIYIPLQAED
B13: HECTD4_(3003-3018) peptide, Q9Y4D8 E3009A (peptide)
chain: GGVFKDAIYIPLQEED
B14: HECTD4_(3003-3018) peptide, Q9Y4D8 Y3011A (peptide)
chain: GGVFKDEIAIPLQEED
B15: HECTD4_(3003-3018) peptide, Q9Y4D8 K3007A (peptide)
chain: GGVFADEIYIPLQEED
B16: HECTD4_(3003-3018) peptide, Q9Y4D8 G3003A (peptide)
chain: AGVFKDEIYIPLQEED
B17: RBM25_(558-573) peptide, P49756 R573A (peptide)
chain: PDAELQRMEQEAERRA
B18: HECTD4_(3003-3018) peptide, Q9Y4D8 E3017A (peptide)
chain: GGVFKDEIYIPLQEAD
B19: RBM25_(558-573) peptide, P49756 R571A (peptide)
chain: PDAELQRMEQEAEARR
B20: RBM25_(558-573) peptide, P49756 E568A (peptide)
chain: PDAELQRMEQAAERRR
B21: HECTD4_(3003-3018) peptide, Q9Y4D8 G3004A (peptide)
chain: GAVFKDEIYIPLQEED
B22: HECTD4_(3003-3018) peptide, Q9Y4D8 I3012A (peptide)
chain: GGVFKDEIYAPLQEED
B23: RBM25_(558-573) peptide, P49756 M565A (peptide)
chain: PDAELQRAEQEAERRR
B24: RBM25_(558-573) peptide, P49756 Q563A (peptide)
chain: PDAELARMEQEAERRR
B25: HECTD4_(3003-3018) peptide, Q9Y4D8 D3008A (peptide)
chain: GGVFKAEIYIPLQEED
B26: HECTD4_(3003-3018) peptide, Q9Y4D8 D3018A (peptide)
chain: GGVFKDEIYIPLQEEA
B27: RBM25_(558-573) peptide, P49756 E561A (peptide)
chain: PDAALQRMEQEAERRR
B28: RBM25_(558-573) peptide, P49756 R572A (peptide)
chain: PDAELQRMEQEAERAR
B29: HECTD4_(3003-3018) peptide, Q9Y4D8 Q3015A (peptide)
chain: GGVFKDEIYIPLAEED
B30: HECTD4_(3003-3018) peptide, Q9Y4D8 I3010A (peptide)
chain: GGVFKDEAYIPLQEED
B31: ATXN7L1_(36-52) peptide (peptide)
peptide: VPSPEAFLGKPWSSWID-NH2
modifications: also: N-terminus FITC-labeled or acetylated
B32: ATXN7L1_(36-57) peptide (peptide)
peptide: VPSPEAFLGKPWSSWIDAAKLH-NH2
modifications: also: N-terminus FITC-labeled or acetylated
B33: ATXN7L2_(18-34) peptide (peptide)
peptide: VPSLDDFAGQSWSSWVE-NH2
modifications: also: N-terminus FITC-labeled or acetylated
B34: ATXN7L2_(18-39) peptide (peptide)
peptide: VPSLDDFAGQSWSSWVERADLP-NH2
modifications: also: N-terminus FITC-labeled or acetylated
B35: ROBO1_(1495-1506) peptide (peptide)
peptide: Ac-AQSKTQLEVRPV-NH2
B36: IRAG1 302-316 peptide (peptide)
peptide: Ac-YTNSSGKMALNSPQPG-NH2
B37: CCP110 582-593 peptide (peptide)
peptide: Ac-YEKVKRRLDLDID-NH2
B38: USP19 874-888 peptide (peptide)
peptide: Ac-YPFQPGRMALESQSPG-NH2
B39: CEP192 2073-2087 peptide (peptide)
peptide: Ac-YLQPSSKASLESTSDL-NH2
B40: HIF1A 564-581 D570K peptide (peptide)
peptide: Ac-PYIPMDKDFQLRSFDQLS-NH2
B41: HIF2A 531-548 peptide (peptide)
peptide: Ac-PYIPMDGEDFQLSPICPE-NH2
B42: GPR137B 348-362 peptide, unlabelled (peptide)
peptide: Ac-SDDDLAWNIAPQGLQ-NH2
B43: MFSD2B 395-409 peptide (peptide)
peptide: Ac-DVVDDFQLQHRHGPGY-NH2
B44: CCDC88B 947-961 peptide (peptide)
peptide: Ac-QLEEELFQLRQGPAGY-NH2
B45: HIF1A 564-581 L574A peptide (peptide)
peptide: Ac-PYIPMDDDFQARSFDQLS-NH2

Columns and labels:
[1] = molecular target: T1, CYLD CAP-Gly3 domain, GST-tagged, Q9NQC7; assay: peptide SPOT array alanine scanning; conditions: chain shown with the change;; parent: est. 0; read off a plot
[2] = molecular target: T2, CYLD CAP-Gly1 domain, GST-tagged, Q9NQC7; assay: peptide SPOT array alanine scanning; conditions: chain shown with the change;; parent: est. 0; read off a plot
[3] = molecular target: USP22 zf-UBP domain, tag cleaved (for FP) (human) (UniProt Q9UPT9); assay: fluorescence polarisation; saturation or displacement not stated for this experiment; 50 mM phosphate buffer pH 7.4, room temperature
Sequence of USP22 zf-UBP domain, tag cleaved (for FP) (human) (Q9UPT9 whole entry, the tested form may be a part): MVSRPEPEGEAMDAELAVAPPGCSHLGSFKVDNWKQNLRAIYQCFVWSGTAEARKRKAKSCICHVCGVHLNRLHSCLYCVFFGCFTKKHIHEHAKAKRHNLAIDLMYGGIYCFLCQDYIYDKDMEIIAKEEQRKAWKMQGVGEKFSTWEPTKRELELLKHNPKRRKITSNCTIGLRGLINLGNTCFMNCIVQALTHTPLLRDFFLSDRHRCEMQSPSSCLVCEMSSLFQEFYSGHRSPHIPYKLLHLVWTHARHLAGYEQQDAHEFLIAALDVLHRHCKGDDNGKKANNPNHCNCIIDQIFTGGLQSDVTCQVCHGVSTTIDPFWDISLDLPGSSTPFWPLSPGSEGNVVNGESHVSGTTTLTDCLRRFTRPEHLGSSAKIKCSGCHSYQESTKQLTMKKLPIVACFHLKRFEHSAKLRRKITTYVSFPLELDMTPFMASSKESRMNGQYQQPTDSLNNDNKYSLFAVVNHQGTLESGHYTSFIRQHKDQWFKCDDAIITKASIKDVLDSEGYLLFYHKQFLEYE

[4] = molecular target: USP20 zf-UBP domain, tag cleaved (for FP) (human); assay: fluorescence polarisation; displacement: unlabeled peptide titrated into the domain (at two-fold the KD of the FITC-labeled peptide) with 10 nM FITC-labeled peptide; 50 mM phosphate buffer pH 7.4, DTT, room temperature; estimated KD
Sequence of USP20 zf-UBP domain, tag cleaved (for FP) (human) (Q9Y2K6 whole entry, the tested form may be a part): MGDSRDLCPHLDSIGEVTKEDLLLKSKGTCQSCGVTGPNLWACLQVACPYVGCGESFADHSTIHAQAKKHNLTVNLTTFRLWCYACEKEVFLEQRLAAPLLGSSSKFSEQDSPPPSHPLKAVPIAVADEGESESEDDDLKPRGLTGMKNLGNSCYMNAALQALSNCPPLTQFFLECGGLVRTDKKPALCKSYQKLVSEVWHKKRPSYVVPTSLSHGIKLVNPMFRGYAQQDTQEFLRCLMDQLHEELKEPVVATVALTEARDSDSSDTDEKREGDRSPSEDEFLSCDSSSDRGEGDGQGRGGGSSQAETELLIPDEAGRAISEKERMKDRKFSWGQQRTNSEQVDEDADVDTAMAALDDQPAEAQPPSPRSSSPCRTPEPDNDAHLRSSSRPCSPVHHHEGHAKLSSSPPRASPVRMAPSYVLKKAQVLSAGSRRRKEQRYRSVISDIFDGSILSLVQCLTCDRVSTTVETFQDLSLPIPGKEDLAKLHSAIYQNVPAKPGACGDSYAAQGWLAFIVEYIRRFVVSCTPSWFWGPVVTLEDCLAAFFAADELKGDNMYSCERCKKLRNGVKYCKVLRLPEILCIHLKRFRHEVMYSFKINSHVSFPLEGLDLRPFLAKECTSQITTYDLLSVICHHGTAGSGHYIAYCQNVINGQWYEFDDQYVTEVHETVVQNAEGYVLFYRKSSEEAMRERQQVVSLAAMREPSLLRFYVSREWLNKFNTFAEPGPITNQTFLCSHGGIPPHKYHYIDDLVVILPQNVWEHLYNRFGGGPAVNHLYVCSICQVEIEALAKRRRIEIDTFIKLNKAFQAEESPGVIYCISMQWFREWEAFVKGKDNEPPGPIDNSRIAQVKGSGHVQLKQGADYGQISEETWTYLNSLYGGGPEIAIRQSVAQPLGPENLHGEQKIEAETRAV

[5] = molecular target: USP33 zf-UBP domain, tag cleaved (for FP) (human) (UniProt Q8TEY7); assay: as above
Sequence of USP33 zf-UBP domain, tag cleaved (for FP) (human) (Q8TEY7 whole entry, the tested form may be a part): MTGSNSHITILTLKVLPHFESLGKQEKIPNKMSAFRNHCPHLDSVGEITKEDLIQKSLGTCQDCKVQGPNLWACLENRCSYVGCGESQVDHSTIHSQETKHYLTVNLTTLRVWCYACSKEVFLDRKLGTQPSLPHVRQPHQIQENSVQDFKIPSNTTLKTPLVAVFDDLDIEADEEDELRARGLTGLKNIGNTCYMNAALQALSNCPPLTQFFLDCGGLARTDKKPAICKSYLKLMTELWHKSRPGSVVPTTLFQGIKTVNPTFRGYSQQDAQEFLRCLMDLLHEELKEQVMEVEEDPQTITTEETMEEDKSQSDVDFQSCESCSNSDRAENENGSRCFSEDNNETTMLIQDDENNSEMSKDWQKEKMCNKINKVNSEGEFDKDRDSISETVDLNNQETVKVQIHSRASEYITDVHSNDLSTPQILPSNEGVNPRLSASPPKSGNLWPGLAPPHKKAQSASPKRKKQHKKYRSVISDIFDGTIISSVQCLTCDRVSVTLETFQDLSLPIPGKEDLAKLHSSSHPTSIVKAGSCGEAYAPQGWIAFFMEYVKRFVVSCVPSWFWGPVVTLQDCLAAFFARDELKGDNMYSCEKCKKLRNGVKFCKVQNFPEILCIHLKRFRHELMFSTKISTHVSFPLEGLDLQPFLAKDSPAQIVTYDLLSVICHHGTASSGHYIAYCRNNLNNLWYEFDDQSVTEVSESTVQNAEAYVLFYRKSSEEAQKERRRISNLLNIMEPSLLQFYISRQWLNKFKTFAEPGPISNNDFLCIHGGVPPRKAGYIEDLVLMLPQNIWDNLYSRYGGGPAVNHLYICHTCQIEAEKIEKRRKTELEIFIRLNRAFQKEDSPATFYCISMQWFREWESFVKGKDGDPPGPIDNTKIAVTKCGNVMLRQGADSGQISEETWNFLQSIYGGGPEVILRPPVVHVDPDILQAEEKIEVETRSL

[6] = molecular target: USP20 zf-UBP domain (human) (UniProt Q9Y2K6); assay: fluorescence polarisation; displacement: serial dilution of the unlabelled peptide against the domain (at two-fold the KD of the FITC-labelled peptide) in complex with 10 nM FITC-labelled peptide; 50 mM phosphate buffer pH 7.4; room temperature; three technical replicates; sigmoidal dose-response fit
Sequence of USP20 zf-UBP domain (human) (Q9Y2K6 whole entry, the tested form may be a part): as the sequence (Q9Y2K6 whole entry, the tested form may be a part) above

[7] = molecular target: USP33 zf-UBP domain (human) (UniProt Q8TEY7); assay: as above
Sequence of USP33 zf-UBP domain (human) (Q8TEY7 whole entry, the tested form may be a part): as the sequence (Q8TEY7 whole entry, the tested form may be a part) above

[8] = molecular target: USP20 DUSP2 domain (human) (UniProt Q9Y2K6); assay: as above
Sequence of USP20 DUSP2 domain (human) (Q9Y2K6 whole entry, the tested form may be a part): as the sequence (Q9Y2K6 whole entry, the tested form may be a part) above

[9] = molecular target: USP33 DUSP2 domain (human) (UniProt Q8TEY7); assay: as above
Sequence of USP33 DUSP2 domain (human) (Q8TEY7 whole entry, the tested form may be a part): as the sequence (Q8TEY7 whole entry, the tested form may be a part) above

Binder | other: signal change (%) [1] [%] | other: signal change (%) [2] [%] | other results
B1 | -70 | – | –
B2 | -95 | – | –
B3 | 50 | – | –
B4 | – | -10 | –
B5 | – | -95 | –
B6 | – | -10 | –
B7 | -85 | – | –
B8 | – | -15 | –
B9 | – | -25 | –
B10 | – | -5 | –
B11 | – | -65 | –
B12 | -25 | – | –
B13 | -95 | – | –
B14 | -95 | – | –
B15 | -95 | – | –
B16 | -5 | – | –
B17 | – | -95 | –
B18 | 55 | – | –
B19 | – | -40 | –
B20 | – | -15 | –
B21 | -95 | – | –
B22 | -90 | – | –
B23 | – | -90 | –

Binder | other: signal change (%) [1] [%] | other: signal change (%) [2] [%] | other results
B24 | – | -35 | –
B25 | -95 | – | –
B26 | 35 | – | –
B27 | – | -30 | –
B28 | – | -95 | –
B29 | -15 | – | –
B30 | -95 | – | –
B31 | – | – | Kd [3]: 11 µM
B32 | – | – | Kd [3]: 0.1 µM
B33 | – | – | Kd [3]: 19 µM
B34 | – | – | Kd [3]: 3 µM
B35 | – | – | Kd [4]: 82 µM; Kd [5]: 14 µM
B36 | – | – | Kd [6]: 9.02 µM; Kd [7]: 7.86 µM
B37 | – | – | Kd [6]: 505 µM; Kd [7]: 260 µM
B38 | – | – | Kd [6]: 162 µM; Kd [7]: 40.6 µM
B39 | – | – | Kd [6]: 37.1 µM; Kd [7]: 14.1 µM
B40 | – | – | Kd [8]: 18.8 µM; Kd [9]: 9.89 µM
B41 | – | – | Kd [8]: 235 µM; Kd [9]: 1180 µM
B42 | – | – | Kd [8]: 10.2 µM; Kd [9]: 228 µM
B43 | – | – | Kd [8]: 44.7 µM; Kd [9]: 0.75 µM
B44 | – | – | Kd [8]: 22.4 µM; Kd [9]: 40.1 µM
B45 | – | – | Kd [9]: 227 µM

From PMC13376213, “Systematic discovery of motif-based interactions of the auxiliary domains of USP family deubiquitinases” (Nature Communications, 2026)
